Test results as given in the supplement of paper PMC10126150.
± gives the standard deviation of the averaged measurements.

The sequences below were run on ATP (assay: switch fluorescence ratio, 500 uM ATP over buffer (Cy3 cluster intensity, sum of 5 cycles each) (fold (ratio)); higher = stronger signal-on switching upon ATP binding; sequences stand for … in TCGTCGGCAGCGTCAGATGTGTATAAGAGACAGTTTTTTTTTTTTTTTTTTTTTTTTT…TC). Conditions: aptamer strand: ATP DNA aptamer (quencher-CACCTGGGGGAGTATTGCGGAGGAAGG + anchor), 100 nM annealed; ATP concentration: 500 uM.
In short: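 Imaging in selection buffer was followed by imaging after 15 min with 500 uM ATP at 22 °C, for Cy3-labelled switching-strand clusters annealed to 100 nM quencher-labelled ATP aptamer on a modified Illumina MiSeq flow-cell. Five of these buffer/ATP cycles ran, separated by NaOH stripping and re-annealing. The fluorescence ratio per cluster is summed target-cycle over summed buffer-cycle Cy3 intensity, averaged per switch-domain sequence; clusters outside 100-1000 RFU were removed.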
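Note: ATP exposure 15 min at 22 °C before imaging.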

In order of rising switch fluorescence ratio:
1. CAGGGGCAGC  0.927 ± 0.05
2. CAGAGTGTGG  0.955 ± 0.026
3. CAGGCGAGTG  0.96 ± 0.014
4. CAGGTTTAGT  0.9682 ± 0.0043
5. CAGGCGGAGA  0.969 ± 0.026
6. CAGAGGTAGG  0.973 ± 0.023
7. CAGAGTTTAG  0.973 ± 0.032
8. CAGCTGAGGC  0.976 ± 0.038
9. CAGGATGGGC  0.977 ± 0.027
10. CAGGGTTGGT  0.977 ± 0.033
11. CAGGCATAAG  0.9805 ± 0.0036
12. CAGGTTGTGC  0.98 ± 0.055
13. CAGAGGGCGG  0.981 ± 0.047
14. CAGCGGCGGA  0.981 ± 0.029
15. CAGGGTATTT  0.981 ± 0.032
16. CAGATGCGGA  0.984 ± 0.017
17. CAGGGGATGT  0.985 ± 0.013
18. CAGGGTGATG  0.985 ± 0.024
19. CAGTAGTGTC  0.985 ± 0.041
20. CAGTACTCTG  0.986 ± 0.031
21. CAGGCTAGGT  0.9873 ± 0.0049
22. CAGGGACGTT  0.987 ± 0.02
23. CAGGGGTTGA  0.987 ± 0.035
24. CAGAATGCGG  0.991 ± 0.023
25. CAGAGATTCT  0.992 ± 0.0077
26. CAGAGTTAAT  0.993 ± 0.045
27. CAGCGTTGTT  0.993 ± 0.018
28. CAGGAAAGCA  0.994 ± 0.031
29. CAGGACTTGC  0.995 ± 0.03
30. CAGAATGTGG  0.996 ± 0.068
31. CAGGGGTCTA  0.9957 ± 0.004
32. CAGGTAAATG  0.9961 ± 0.0027
33. CAGGCAGGTC  0.997 ± 0.024
34. CAGAGTCTGT  0.999 ± 0.022
35. CAGAAGTTTG  1 ± 0.034
36. CAGACGGGTC  1 ± 0.041
37. CAGATCCGGG  1 ± 0.024
38. CAGCGTGGCA  1 ± 0.021
39. CAGCTAGAGG  1 ± 0.037
40. CAGCTGGGGG  1 ± 0.024
41. CAGGGGATTA  1 ± 0.045
42. CAGGGGCGCA  1 ± 0.075
43. CAGGTTGGGT  1.001 ± 0.0086
44. CAGACGGGGG  1.01 ± 0.026
45. CAGAGGGACT  1.01 ± 0.023
46. CAGATTTTTA  1.01 ± 0.029
47. CAGCAGAGGG  1.01 ± 0.01
48. CAGCGGGGGA  1.012 ± 0.0014
49. CAGCTACGTC  1.01 ± 0.04
50. CAGCTGGGGA  1.01 ± 0.055
51. CAGGCATGAG  1.01 ± 0.011
52. CAGGCCGTAT  1.01 ± 0.016
53. CAGGGAGTAG  1.01 ± 0.021
54. CAGGGCATGG  1.01 ± 0.0073
55. CAGGGCCTGT  1.01 ± 0.028
56. CAGGGGCTCG  1.01 ± 0.036
57. CAGGGGGGTA  1.01 ± 0.016
58. CAGGGGTATC  1.01 ± 0.033
59. CAGGGGTTGC  1.01 ± 0.013
60. CAGGTGGAGA  1.0094 ± 0.00078
61. CAGGTTACGC  1.01 ± 0.027
62. CAGACCAGCT  1.02 ± 0.036
63. CAGAGACCTG  1.02 ± 0.057
64. CAGGCGGCCC  1.019 ± 0.01
65. CAGGGACGGA  1.02 ± 0.017
66. CAGGGGAGGT  1.02 ± 0.014
67. CAGGGTTTCG  1.02 ± 0.078
68. CAGGTCTTTC  1.02 ± 0.021
69. CAGTAACTGT  1.02 ± 0.027
70. CAGTAGAATT  1.02 ± 0.023
71. CAGAGAGGTC  1.03 ± 0.039
72. CAGCGGGGGT  1.03 ± 0.05
73. CAGCGTATTT  1.03 ± 0.036
74. CAGGAGGAGA  1.025 ± 0.01
75. CAGGAGGGGT  1.03 ± 0.025
76. CAGGAGTGTA  1.03 ± 0.036
77. CAGGGGTTA  1.03 ± 0.044
78. CAGACGGAGT  1.039 ± 0.01
79. CAGAGTACGT  1.036 ± 0.0091
80. CAGCTAACTT  1.0399 ± 0.00052
81. CAGGAATGCG  1.04 ± 0.055
82. CAGGCAAGCG  1.04 ± 0.026
83. CAGGGTGGAC  1.04 ± 0.04
84. CAGACAGGGG  1.05 ± 0.02
85. CAGAGGTTCC  1.05 ± 0.042
86. CAGGAGACGC  1.05 ± 0.036
87. CAGGGAACGG  1.05 ± 0.022
88. CAGGCATAGG  1.06 ± 0.033
89. CAGGCGGGTG  1.06 ± 0.11
90. CAGGGACATT  1.08 ± 0.067
91. CAGGGGGGTT  1.09 ± 0.21
92. CAGGTGTGGC  1.11 ± 0.013
93. CAGGTGCGGG  1.1694 ± 0.0009
94. CAGGTGCTGG  1.167 ± 0.0018
95. CAGGAAAGCT  1.234 ± 0.0051
96. CAGGTGAGTG  1.251 ± 0.0088
97. CAGGCAGCAT  1.32 ± 0.089
98. CAGGGGTATT  1.32 ± 0.42
99. CAGGTGTTTG  1.39 ± 0.055
100. CAGCAACTCA  1.65 ± 0.024
